The record followed here is patent publication US20140213523A1 (TIVORSAN PHARMACEUTICALS, published 2014).

The data set concerns the molecule itself. As to the kind of experiment: Analytical ultracentrifugation (sedimentation velocity) at three concentrations, 20 mM Tris pH 8, 0.5 M NaCl, 20 °C; self-association of T2-rhBGN (M form to D form). The method, then:
FIG. 1. Analytical ultracentrifugation of HIC pool purified from CHO clone 57.
T2-rhBGN was purified from conditioned media of CHO clone 57 and 171 and HEK 293 clone 2 by a combination of anion exchange and hydrophobic interaction (HIC). Analytical ultracentrifugation (AUC) of HIC pool purified from CHO Clone 57 resolved into two sedimentation peaks: M with a sedimentation coefficient: s_{20,w}≈2.88 and D with coefficient s_{20,w}≈4.28 (FIG. 1). […] Experiments were performed at 20° C., in a Beckman Optima XL-I analytical ultracentrifuge. Spin Analytical charcoal upon 12 mm double-sector centerpieces were used in an eight-hole AN 50 Ti rotor at 45,000 rpm. Radial absorption scans were measured at λ=280 nm. Sedfit 12.44 was used for data analysis, with a 68% confidence limit (analyticalultracentrifugation.com). Sedimentation coefficients were corrected to standard s_{20,w} conditions using the experimental buffer density and buffer viscosity as calculated with […] (sednterp.unh.edu). Buffer: 20 mM Tris, pH 8, 0.5M NaCl; viscosity=0.01002 Poise; density=1.004989 g/mL. Partial specific volume, v-bar=0.74413 mL/g calculated from amino acid composition with Sednterp.

B1: T2-rhBGN (T2 recombinant human biglycan) (other)
chain: DEEAAGADTAGVLDPDSVTPTYSAMCPFGCHCHLRVVQCSDLGLKSVPKEISPDTTLLDLQNNDISELRKDDFKGLQHLYALVLVNNKISKIHEKAFSPLRKLQKLYISKNHLVEIPPNLPSSLVELRIHDNRIRKVPKGVFSGLRNMNCIEMGGNPLENSGFEPGAFDGLKLNYLRISEAKLTGIPKDLPETLNELHLDHNKIQAIELEDLLRYSKLYRLGLGHNQIRMIENGSLSFLPTLRELHLDNNKLARVPSGLPDLKLLQVVYLHSNNITKVGVNDFCPMGFGVKRAYYNGISLFNNPVPYWEVQPATFRCVTDRLAIQFGNYKK
modifications: N-linked glycans (M and D forms differ in N-glycan profile); no GAG side chains
notes: Purified from conditioned medium of CHO clone 57 by anion exchange and HIC; The pool is a mixture of the M form (generally monomeric) and the D form (generally dimeric); No tags are stated; also called HIC pool; M-rhBGN
On to B1, for which the Kd (in general, the free concentration of one partner at which half of the binding sites on the other are occupied at equilibrium, for simple one-to-one binding) is approximately 50 µM.
